Assay results taken from IntAct's records for PubMed 28684427.

B1: ALBINO3-like protein 1, chloroplastic (Arabidopsis thaliana (Mouse-ear cress)), Q9FYL3 (parent)
chain: MSSTISLKPTHLILSSFSTGKVLQFRRSRFSHTPSSSSSRYRTLVAQLGFRPDSFDFIKDHAENLLYTIADAAVSSSETFESVAGTTTKTTQSNDWFSGIANYMETILKVLKDGLSTVHVPYSYGFAIILLTVLVKAATFPLTKKQVESAMAMKSLTPQIKAIQERYAGDQEKIQLETARLYKLAGINPLAGCLPTLATIPVWIGLYRALSNVADEGLLTEGFFWIPSLAGPTTVAARQNGSGISWLFPFIEGHPPLGWPDTLAYLVLPLLLVFSQYLSIQIMQSSQSNDPAMKSSQAVTKLLPLMIGYFALSVPSGLSLYWLTNNILSTAQQVWLQKYGGAKNPVEKFTNLVTKEDKTQQIEKSFSEPLVQKSVSELKIPREKGGEKVTPECPKPGERFRLLKEQEAKRRREKEERQKAEAALSNQNTDKAHEQDEKSDTAIVAEDDKKTELSAVDETSDGTVAVNGKPSIQKDETTNGTFGIGHDTEQQHSHETEKR
partner: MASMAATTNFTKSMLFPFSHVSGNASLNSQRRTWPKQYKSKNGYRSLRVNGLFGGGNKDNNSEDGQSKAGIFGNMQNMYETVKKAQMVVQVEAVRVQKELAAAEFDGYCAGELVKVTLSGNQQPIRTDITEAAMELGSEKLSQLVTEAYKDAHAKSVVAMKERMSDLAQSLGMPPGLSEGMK

Variants of: B1
Settings: with ebfc2_arath STIC2, O82230

Row | effect of a mutation on the interaction | Variant
1 | decreasing interaction strength | MSSTISLKPTHLILSSFSTGKVLQFRRSRFSHTPSSSSSRYRTLVAQLGFRPDSFDFIKDHAENLLYTIADAAVSSSETFESVAGTTTKTTQSNDWFSGIANYMETILKVLKDGLSTVHVPYSYGFAIILLTVLVKAATFPLTKKQVESAMAMKSLTPQIKAIQERYAGDQEKIQLETARLYKLAGINPLAGCLPTLATIPVWIGLYRALSNVADEGLLTEGFFWIPSLAGPTTVAARQNGSGISWLFPFIEGHPPLGWPDTLAYLVLPLLLVFSQYLSIQIMQSSQSNDPAMKSSQAVTKLLPLMIGYFALSVPSGLSLYWLTNNILSTAQQVWLQKYGGAKNPVEKFTNLVTKEDKTQQIEKSFSEPLVQKSVSELKIPREKGGEKVTPECPKPSERFRLLKEQEAKRRREKEERQKAEAALSNQNTDKAHEQDEKSDTAIVAEDDKKTELSAVDETSDGTVAVNGKPSIQKDETTNGTFGIGHDTEQQHSHETEKR [G397S]

Variants of: B1
Settings: with ebfc2_arath STIC2, O82230
Remark: another data set of the same source

Row | effect of a mutation on the interaction | Variant
2 | with no effect | MSSTISLKPTHLILSSFSTGKVLQFRRSRFSHTPSSSSSRYRTLVAQLGFRPDSFDFIKDHAENLLYTIADAAVSSSETFESVAGTTTKTTQSNDWFSGIANYMETILKVLKDGLSTVHVPYSYGFAIILLTVLVKAATFPLTKKQVESAMAMKSLTPQIKAIQERYAGDQEKIQLETARLYKLAGINPLAGCLPTLATIPVWIGLYRALSNVADEGLLTEGFFWIPSLAGPTTVAARQNGSGISWLFPFIEGHPPLGWPDTLAYLVLPLLLVFSQYLSIQIMQSSQSNDPAMKSSQAVTKLLPLMIGYFALSVPSGLSLYWLTNNILSTAQQVWLQKYGGAKNPVEKFTNLVTKEDKTQQIEKSFSEPLVQKSVSELKIPREKGGEKVTPECPKPSERFRLLKEQEAKRRREKEERQKAEAALSNQNTDKAHEQDEKSDTAIVAEDDKKTELSAVDETSDGTVAVNGKPSIQKDETTNGTFGIGHDTEQQHSHETEKR [G397S]
